{"source": "patent US9169481B2", "about": "“Cell-mediated directed evolution” (priority 2006, dated 2015)", "key": {"[1]": {"tested_on": "reverse yeast three-hybrid strain", "assay": "5-FOA effect on growth of reverse yeast three-hybrid strain", "type": "cell-based, Saccharomyces cerevisiae", "conditions": "5-FOA concentrations beyond 0.3%", "source_text": "First, we recombined the URA3 gene at the ura3-52 locus of our chemical complementation yeast strain, FY251, and selected for Ura^+ phenotype on medium lacking uracil to create VC2169. Next, the vectors carrying the DBD-DHFR and GR-B42 constructs were introduced into VC2169 and selected on plates lacking uracil, histidine, and tryptophan to create VC2291. Finally, we introduced the LexA(4op) and the Spo13 promoter upstream of the URA3 gene and selected for Ura^− phenotype on medium containing 5-FOA. This selection provided numerous reverse three-hybrid colonies. Three colonies were used to optimize the reverse yeast three-hybrid system for the highest fold increase in activation in the presence of 10 μM Mtx-Dex by measuring the difference between cell survival and cell death. Mtx-Dex was used, instead of Mtx-Cel-Dex, for the optimization of the system as the cellulose linker is not necessary for the system's functioning, and the synthesis of Mtx-Dex is simpler than that of Mtx-Cel-Dex. The system was optimized by varying the level of galactose, which affects the concentration of DBD-DHFR and AD-GR in the system, and 5-FOA, which controls the toxicity level of the reporter gene. Galactose levels ranging from 1 to 2% and 5-FOA concentrations ranging from 0.1 to 0.5% were tested simultaneously. […]"}, "[2]": {"tested_on": "O=[N+]([O-])c1ccc(O[C@@H]2O[C@H](CO)[C@@H](O[C@@H]3O[C@H](CO)[C@@H](O)[C@H](O)[C@H]3O)[C@H](O)[C@H]2O)cc1", "assay": "Steady-state kinetics of pNPC hydrolysis (release of p-nitrophenol), CelT = CelV", "type": "biochemical, Erwinia carotovora", "conditions": "other: pNPC, pH 7, room temperature", "source_text": "(§1) The DNA shuffling vector, pPPY2148, was constructed by digesting p425Met25 (ATCC) with HindIII and PstI and introducing an 800 bp stuffer flanked by SfiI sites. The catalytic domain of four family 5 cellulases with 77-90% sequence identity, E. carotovora CelN (Olsen et al., 1996, Biotechnology (N Y) 14:71-76), CelVI (Mae and Palva, 1995, Mol Gen Genet. 247:17-26), CelA (Park et al., 1997, Biochem Biophys Res Commun. 241:636-641) and CelT (cloned from the E. carotovora subs. atroceptica (Bell et al., 2004, Proc Natl Acad Sci USA. 101: 11105-11110) genomic DNA) were cloned into pPY2148 to create plasmids pPPY2230, pPPY2232, pPPY2234 and pPPY2236 respectively. A ^6His-tag was added at the C-terminus of the four parent genes to facilitate protein purification after selection. The catalytic domain of these cellulases was identified by sequence comparison with the catalytic domain of Bacillus agaradhaerens Cel5A, which has 68% sequence identity at the amino acid level with the parent genes and which three dimensional X-ray structure is available (Davies et al., 1998, Biochemistry 37: 1926-1932; Davies et al., 1998, Biochemistry 37: 11707-11713; Varrot et al., 2000, J Mol Biol. 297: 819-828; Varrot et al., 2001, Acta Crystallogr D Biol Crystallogr. 57: 1739-1742; Varrot and Davies, 2003, Acta Crystallogr D Biol Crystallogr. 59: 447-452). The cellulase genes were shuffled using standard procedures with slight variations (Zhao and Arnold, 1997, Nucleic Acids Res. 25: 1307-1308). To introduce the shuffled product into the shuffling vector via homologous recombination, 30 bp homology to the shuffling vector was introduced at the 5′ and 3′ end of the shuffled product by carrying an extra amplification step of the shuffling product primers VC1658-VC1659. 7.5 ng of shuffled product ([…] shuffled product molecules assuming each base pair is 330M and the shuffled product was 1000 bp) was used as a template in a 100 ul amplification reaction. The product was purified in a 2% agarose gel.\n(§2) Ten colonies selected on day 8 and 9 were characterized in vitro using para-nitrophenyl cellobioside (pNPC) as a substrate. The cellulase chimeras were amplified from the shuffling vector using primers PPY100 and PPY103 and subcloned into the T7-expression vectors pAED4 between NdeI and HindIII sites. The cellulase chimeras were over expressed in E. coli and purified using a Nickel affinity column. Protein concentration was determined using the extinction coefficient of the parent genes ε=76890 and absorption at A280. To determine the kinetic constants for the hydrolysis of pNPC, the cellulase chimeras were incubated at room temperature in phosphate buffer (25 mM K2HPO4, 100 mM NaCl, pH=7) containing various concentrations of the substrate, and the release of p-nitrophenol (εpH=7=4000M^−1 cm^−1, A420) was recorded continuously in a SpectraMax Plus 384 spectrophotometer.\n(§3) The three starting cellulases and the improved cellulase variants were subcloned into the E. coli T7 vector, pAED4, between NdeI and HindIII sites to give vectors pPPY2256 (CelN), pPPY2258 (CelA), pPPY2257 (CelV), pPPY2291 (Cel—3.7), and pPPY2292 (Cel—5.7). The cellulases were purified using Quick spin Ni-NTA affinity column (Qiagen). Protein concentration was determined using the extinction coefficient of the starting genes (ε=76670) and absorption at 280 nm. […] The release of p-nitrophenol (εpH 7=4000M−1 cm−1, A420) was recorded continuously in a SpectraMax Plus 384 spectrophotometer at 420 nm."}, "[3]": {"tested_on": "O=[N+]([O-])c1ccc(O[C@@H]2O[C@H](CO)[C@@H](O[C@@H]3O[C@H](CO)[C@@H](O)[C@H](O)[C@H]3O)[C@H](O)[C@H]2O)cc1", "assay": "Steady-state kinetics of pNPC hydrolysis (release of p-nitrophenol), CelN", "type": "biochemical, Erwinia carotovora", "conditions": "other: pNPC, pH 7, room temperature", "source_text": "as §1, §2, §3"}}, "data": [{"molecule": "O=C(O)c1[nH]c(=O)[nH]c(=O)c1F", "note": "[5-FOA, 5-fluoroorotic acid]", "values": [{"measurement": "effect on cell growth", "setting": "[1]", "result": "detrimental for cell growth"}]}, {"molecule": "Erwinia carotovora cellulase CelV (Cellulase V; = CelT, Cellulase T), catalytic domain, parent (Pectobacterium atrosepticum SCRI1043)", "values": [{"measurement": "Km", "setting": "[2]", "result": 4.6, "unit": "mM"}, {"measurement": "kcat", "setting": "[2]", "result": 1100, "unit": "s⁻¹"}, {"measurement": "kcat/Km", "setting": "[2]", "result": 237000, "unit": "M⁻¹ s⁻¹"}]}, {"molecule": "Erwinia carotovora cellulase CelN (Cellulase N), catalytic domain, parent (Pectobacterium atrosepticum)", "values": [{"measurement": "Km", "setting": "[3]", "result": 3.4, "unit": "mM"}, {"measurement": "kcat", "setting": "[3]", "result": 1300, "unit": "s⁻¹"}, {"measurement": "kcat/Km", "setting": "[3]", "result": 374000, "unit": "M⁻¹ s⁻¹"}]}]}
